According to paper doi:10.1101/2024.03.11.584335:
Read-outs that look alike come from different tables or passages of the source.

Tests used:
RPAcoreΔP [1] = target: T1, RPAcoreΔP (human, UniProt P27694;P15927;P35244 438-616;35-270;1-121); assay: BLI
[2] = target: RPAcoreΔP,W (minimal trimerization core, domains C, D, E) (human, UniProt P27694;P15927;P35244 438-616;35-174;1-121); assay: BLI
RPAcoreΔP [3] = target: T1, RPAcoreΔP; assay: BLI; remark: listed apart in the source
[4] = target: RPAcore;PolαCD (catalytic domain of DNA polymerase alpha) (human;human, UniProt P27694;P15927;P35244;P09884 438-616;1-270;1-121;335-1257, |); assay: cryo-EM
Chain of RPAcore;PolαCD (catalytic domain of DNA polymerase alpha) (P27694 438-616, chain 1 of 4): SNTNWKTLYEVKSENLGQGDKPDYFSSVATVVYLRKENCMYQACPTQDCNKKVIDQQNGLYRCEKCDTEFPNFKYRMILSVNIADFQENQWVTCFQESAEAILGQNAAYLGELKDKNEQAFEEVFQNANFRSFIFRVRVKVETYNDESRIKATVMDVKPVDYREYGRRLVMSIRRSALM
Chain of RPAcore;PolαCD (catalytic domain of DNA polymerase alpha) (P15927 whole entry, chain 2 of 4, the tested form may be a part): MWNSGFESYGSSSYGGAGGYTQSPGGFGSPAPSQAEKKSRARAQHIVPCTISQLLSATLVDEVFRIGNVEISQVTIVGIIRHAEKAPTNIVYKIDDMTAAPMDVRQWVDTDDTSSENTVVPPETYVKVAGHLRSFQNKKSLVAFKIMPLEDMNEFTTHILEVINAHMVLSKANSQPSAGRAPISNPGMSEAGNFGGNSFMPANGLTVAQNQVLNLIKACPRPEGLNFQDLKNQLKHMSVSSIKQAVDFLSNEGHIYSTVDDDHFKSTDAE
Chain of RPAcore;PolαCD (catalytic domain of DNA polymerase alpha) (P35244 whole entry, chain 3 of 4, the tested form may be a part): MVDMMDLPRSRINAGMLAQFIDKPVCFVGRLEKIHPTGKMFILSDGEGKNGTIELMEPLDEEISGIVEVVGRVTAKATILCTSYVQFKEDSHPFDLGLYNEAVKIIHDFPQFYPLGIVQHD
Chain of RPAcore;PolαCD (catalytic domain of DNA polymerase alpha) (P09884 335-1257, chain 4 of 4): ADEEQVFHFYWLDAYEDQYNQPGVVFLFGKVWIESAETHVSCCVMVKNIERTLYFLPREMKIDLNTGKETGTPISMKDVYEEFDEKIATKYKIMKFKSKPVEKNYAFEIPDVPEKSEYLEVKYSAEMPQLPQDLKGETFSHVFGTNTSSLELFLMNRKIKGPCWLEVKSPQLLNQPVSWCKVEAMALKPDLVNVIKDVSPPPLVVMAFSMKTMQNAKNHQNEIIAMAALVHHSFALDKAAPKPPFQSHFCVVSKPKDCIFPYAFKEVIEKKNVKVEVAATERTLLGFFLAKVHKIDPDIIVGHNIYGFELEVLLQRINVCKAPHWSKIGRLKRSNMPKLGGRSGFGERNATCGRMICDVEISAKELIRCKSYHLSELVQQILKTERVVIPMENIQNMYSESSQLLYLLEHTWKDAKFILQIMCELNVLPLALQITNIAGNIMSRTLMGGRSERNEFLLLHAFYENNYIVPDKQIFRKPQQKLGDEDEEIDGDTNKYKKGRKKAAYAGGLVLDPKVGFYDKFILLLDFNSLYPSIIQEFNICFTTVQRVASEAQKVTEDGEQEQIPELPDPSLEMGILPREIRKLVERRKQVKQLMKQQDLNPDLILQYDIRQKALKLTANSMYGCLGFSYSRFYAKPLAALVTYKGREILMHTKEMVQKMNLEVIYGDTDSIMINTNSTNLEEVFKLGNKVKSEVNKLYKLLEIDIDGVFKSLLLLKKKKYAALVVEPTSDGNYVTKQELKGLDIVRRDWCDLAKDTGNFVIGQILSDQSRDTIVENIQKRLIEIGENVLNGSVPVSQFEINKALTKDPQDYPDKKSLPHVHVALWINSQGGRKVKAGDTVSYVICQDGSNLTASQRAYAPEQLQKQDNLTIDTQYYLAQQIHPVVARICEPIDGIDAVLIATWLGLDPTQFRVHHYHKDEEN

T1 sequence (P27694 438-616, stated change not applied, chain 1 of 3): as the sequence (P27694 438-616, chain 1 of 4) above
T1 sequence (P15927 35-270, stated change not applied, chain 2 of 3): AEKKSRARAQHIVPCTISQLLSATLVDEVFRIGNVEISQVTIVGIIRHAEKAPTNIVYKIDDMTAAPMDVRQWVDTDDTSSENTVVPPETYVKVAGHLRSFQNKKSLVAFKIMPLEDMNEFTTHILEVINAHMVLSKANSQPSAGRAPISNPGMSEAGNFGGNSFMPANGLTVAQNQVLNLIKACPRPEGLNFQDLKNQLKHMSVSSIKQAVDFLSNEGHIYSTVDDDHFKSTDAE
T1 sequence (P35244 whole entry, stated change not applied, chain 3 of 3): as the sequence (P35244 whole entry, chain 3 of 4, the tested form may be a part) above
Chain of RPAcoreΔP,W (minimal trimerization core, domains C, D, E) (P27694 438-616, stated change not applied, chain 1 of 3): as the sequence (P27694 438-616, chain 1 of 4) above
Chain of RPAcoreΔP,W (minimal trimerization core, domains C, D, E) (P15927 35-174, stated change not applied, chain 2 of 3): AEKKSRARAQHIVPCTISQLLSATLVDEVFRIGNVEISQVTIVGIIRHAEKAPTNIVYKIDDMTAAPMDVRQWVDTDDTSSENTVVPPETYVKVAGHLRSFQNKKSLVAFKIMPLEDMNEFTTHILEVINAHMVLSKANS
Chain of RPAcoreΔP,W (minimal trimerization core, domains C, D, E) (P35244 whole entry, stated change not applied, chain 3 of 3): as the sequence (P35244 whole entry, chain 3 of 4, the tested form may be a part) above

Row | Binder | Kd (RPAcoreΔP [1]) [nM] | Kd [2] [nM] | Kd (RPAcoreΔP [3]) [nM] | binding result [4]
1 | T8:P3 template:primer (mixed, P3 is a chimeric RNA-DNA primer (RNA/DNA boundary not in the material) with 3'-dideoxycytidine) DNA: AATCTAGTAACATAGTATACATAAGCGCTCCAGGC RNA: GCCUGGAGCGC | 124 ± 15 | 90.2 ± 4.5 | 50.3 ± 6.6 | 
2 | T9:P4 template:primer (mixed, P4 primer contains U (RNA-DNA chimera?) and 3'-dideoxycytidine) DNA: AATCTAGTAACATAGTATACATAGGCGCTCCAGGC RNA: GCCUGGAGCGC |  |  |  | binds
